Patent publication US20250092109A1 (XILIO DEVELOPMENT, published 2025)
Residue numbers refer to the chain shown, from its start. Numbers in names are those of the source.

T1: CD25 on CD25+ cells (UniProt P01589 22-272, limits assumed)
T1 sequence (looked up): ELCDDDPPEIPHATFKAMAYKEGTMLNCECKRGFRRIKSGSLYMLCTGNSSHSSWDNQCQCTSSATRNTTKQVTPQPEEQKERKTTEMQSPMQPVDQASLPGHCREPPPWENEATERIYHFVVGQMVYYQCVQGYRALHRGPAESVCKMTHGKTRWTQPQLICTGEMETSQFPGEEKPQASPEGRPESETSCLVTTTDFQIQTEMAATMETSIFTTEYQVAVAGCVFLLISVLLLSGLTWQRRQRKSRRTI

B1: IL-2 V7 (ligand)
chain: APTSSSTKKTQLQLEHLLLDLQMILNGINNYKNPKLTRMLTSKFYMPKKATELKHLQCLEESLKPLEEVLNLAQSKNFHLRPRDLISNINVIVLELKGSETTFMCEYADETATIVEFLNRWITFAQSIISTLT
B2: IL-2 V2 (ligand)
chain: B1 chain with R38A, S42A, Y45A, S62A
B3: VHH1 (VHH)
VHH: EVQLVESGGGLVQPGGSLRLSCAASGSIFSINVMGWYRQAPGKQRELVAAISSGGSTNYADSVKGRFTISRDNAKNTVYLQMNSLKPEDTAVYYCMYASSWYEDETDYWGQGTQVTVSS
notes: In the functional rows it stood as the masking moiety of constructs C7, C2, C4 and C6, fused to an Fc chain; also called Parental; parental anti-IL-2
B4: VHH46 (VHH)
VHH: B3 VHH
B5: VHH31 (VHH)
VHH: B3 VHH with I31S, Q44G, R45L, M96A, W101F
notes: also called I31S, Q44G, R45L, M96A, W101F
B6: VHH21 (VHH)
VHH: B3 VHH with I31S, M96A, W101F
notes: also called I31S, M96A, W101F
B7: VHH9 (VHH)
VHH: B3 VHH with Q44G, M96A, W101F
notes: In the functional rows it stood as the masking moiety of construct C12; also called Q44G, M96A, W101F
B8: VHH12 (VHH)
VHH: B3 VHH with Q44G, M96A, W101Y
notes: In the functional rows it stood as the masking moiety of constructs C13 and C1; also called Q44G, M96A, W101Y
B9: VHH5 (VHH)
VHH: B3 VHH with M96A
notes: also called M96A
B10: VHH40 (VHH)
VHH: B3 VHH with W109R, Q114L
notes: also called W109R, Q114L
B11: VHH7 (VHH)
VHH: B3 VHH with Q44G, R45L
notes: In the functional rows it stood as the masking moiety of construct C9; also called Q44G, R45L
B12: VHH6 (VHH)
VHH: B3 VHH with Q44G
notes: In the functional rows it stood as the masking moiety of construct C8; also called Q44G
B13: VHH36 (VHH)
VHH: B3 VHH with I31S, Q44G, R45L, M96A, W101Y
notes: In the functional rows it stood as the masking moiety of construct C11; also called I31S, Q44G, R45L, M96A, W101Y
B14: VHH26 (VHH)
VHH: B3 VHH with I31S, M96A, W101Y
notes: In the functional rows it stood as the masking moiety of construct C10; also called I31S, M96A, W101Y

Assays:
[1] = target: T1, CD25 on CD25+ cells; assay: cell-based or functional assay
[2] = target: T2, IL-2 (UniProt P60568 21-153); assay: SPR
T2 construct: also called interleukin 2
Target sequence in this assay (P60568 21-153 limits assumed): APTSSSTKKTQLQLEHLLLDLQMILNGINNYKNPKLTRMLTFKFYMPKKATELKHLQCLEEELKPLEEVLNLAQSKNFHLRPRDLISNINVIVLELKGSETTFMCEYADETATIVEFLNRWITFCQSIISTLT

[3] = target: IL-2 V3 (Homo sapiens (Human), UniProt P60568 21-153); assay: cell-based or functional assay
[4] = target: B2; assay: cell-based or functional assay
[5] = target: T2, IL-2; assay: SPR, criterion of kinetic Group 2

Binder: B1
EC50 (read off the curve), %pSTAT5+ of CD4+FoxP3+CD25+ cells [1]: ~3000 pM

Binder: B2
EC50 (read off the curve), %pSTAT5+ of CD4+FoxP3+CD25+ cells [1]: ~4000 pM

Binder: B3
Kd [2]: 0.0601 nM
koff [2]: 3.28e-05 s⁻¹
kon [2]: 546000 M⁻¹ s⁻¹
Average EC50 (nM) with MMP, construct C2, pSTAT5 on CD8+ T cells of hPBMCs [3]: 0.23 nM
Average EC50 (nM) with MMP, construct C4, pSTAT5 on CD8+ T cells of hPBMCs [3]: 0.26 nM
Average EC50 (nM) with MMP, construct C6, pSTAT5 on CD8+ T cells of hPBMCs [3]: 0.28 nM
Average EC50 (nM) without MMP, construct C2, pSTAT5 on CD8+ T cells of hPBMCs [3]: 137 nM
Average EC50 (nM) without MMP, construct C4, pSTAT5 on CD8+ T cells of hPBMCs [3]: 136 nM
Average EC50 (nM) without MMP, construct C6, pSTAT5 on CD8+ T cells of hPBMCs [3]: 470 nM
Fold Change (Cleaved/Unmasked Control), construct C2 [3]: 4.2 fold
Fold Change (Cleaved/Unmasked Control), construct C4 [3]: 4.7 fold
Fold Change (Cleaved/Unmasked Control), construct C6 [3]: 5.1 fold
Fold Masking (Uncleaved/Unmasked Control), construct C2 [3]: 2490 fold
Fold Masking (Uncleaved/Unmasked Control), construct C4 [3]: 2470 fold
Fold Masking (Uncleaved/Unmasked Control), construct C6 [3]: 8550 fold
EC50 (pM) of intact construct C7, HEK Blue cell-based reporter assay [4]: 3390 pM
Fold Change (Intact/Cleaved), construct C7, HEK Blue assay [4]: 112 fold
Fold Change (Intact/Parental), construct C7, HEK Blue assay [4]: 101 fold

Binder: B4
Average EC50 (nM) with MMP, construct C5, pSTAT5 on CD8+ T cells of hPBMCs [3]: 0.25 nM
Average EC50 (nM) without MMP, construct C5, pSTAT5 on CD8+ T cells of hPBMCs [3]: 411 nM
Fold Change (Cleaved/Unmasked Control), construct C5 [3]: 4.5 fold
Fold Masking (Uncleaved/Unmasked Control), construct C5 [3]: 7470 fold

Binder: B5
kd relative to VHH1 kd [5]: > 6 fold of VHH1 kd

Binder: B6
kd relative to VHH1 kd [5]: > 6 fold of VHH1 kd

Binder: B7
Kd [2]: 10.9 nM
EC50 (pM) of intact construct C12, HEK Blue cell-based reporter assay [4]: 4140 pM
Fold Change (Intact/Cleaved), construct C12, HEK Blue assay [4]: 180 fold
Fold Change (Intact/Parental), construct C12, HEK Blue assay [4]: 123 fold

Binder: B8
Kd [2]: 12.7 nM
koff [2]: 3.97 s⁻¹
Average EC50 (nM) with MMP, construct C1, pSTAT5 on CD8+ T cells of hPBMCs [3]: 0.051 nM
Average EC50 (nM) without MMP, construct C1, pSTAT5 on CD8+ T cells of hPBMCs [3]: 28.1 nM
Fold Change (Cleaved/Unmasked Control), construct C1 [3]: 0.9 fold
Fold Masking (Uncleaved/Unmasked Control), construct C1 [3]: 511 fold
EC50 (pM) of intact construct C13, HEK Blue cell-based reporter assay [4]: 3130 pM
Fold Change (Intact/Cleaved), construct C13, HEK Blue assay [4]: 158 fold
Fold Change (Intact/Parental), construct C13, HEK Blue assay [4]: 93.1 fold

Binder: B9
kd relative to VHH1 kd [5]: > 6 fold of VHH1 kd

Binder: B10
kd relative to VHH1 kd [5]: > 6 fold of VHH1 kd

Binder: B11
Kd [2]: 0.187 nM
koff [2]: 0.000111 s⁻¹
kon [2]: 595000 M⁻¹ s⁻¹
EC50 (pM) of intact construct C9, HEK Blue cell-based reporter assay [4]: 6240 pM
Fold Change (Intact/Cleaved), construct C9, HEK Blue assay [4]: 201 fold
Fold Change (Intact/Parental), construct C9, HEK Blue assay [4]: 186 fold

Binder: B12
Kd [2]: 0.00457 nM
koff [2]: 2.18e-06 s⁻¹
kon [2]: 476000 M⁻¹ s⁻¹
EC50 (pM) of intact construct C8, HEK Blue cell-based reporter assay [4]: 4270 pM
Fold Change (Intact/Cleaved), construct C8, HEK Blue assay [4]: 176 fold
Fold Change (Intact/Parental), construct C8, HEK Blue assay [4]: 127 fold

Binder: B13
Kd [2]: 3.99 nM
koff [2]: 0.00237 s⁻¹
kon [2]: 594000 M⁻¹ s⁻¹
EC50 (pM) of intact construct C11, HEK Blue cell-based reporter assay [4]: 2860 pM
Fold Change (Intact/Cleaved), construct C11, HEK Blue assay [4]: 118 fold
Fold Change (Intact/Parental), construct C11, HEK Blue assay [4]: 84.9 fold
kd relative to VHH1 kd [5]: > 6 fold of VHH1 kd

Binder: B14
Kd [2]: 1.35 nM
koff [2]: 0.00427 s⁻¹
kon [2]: 3.15e+06 M⁻¹ s⁻¹
EC50 (pM) of intact construct C10, HEK Blue cell-based reporter assay [4]: 3970 pM
Fold Change (Intact/Cleaved), construct C10, HEK Blue assay [4]: 202 fold
Fold Change (Intact/Parental), construct C10, HEK Blue assay [4]: 118 fold
kd relative to VHH1 kd [5]: > 6 fold of VHH1 kd
